Several values for one entry are separate records, joined by “and”; a condition that tells them apart may be missing. Equal entries are not always repeated. In the oligonucleotide strings, read from the 5' end, every base follows the letter of its sugar. An asterisk marks phosphorothioate; unmarked linkages are phosphodiester. Other units and linkages are bracketed, terminal groups are in braces. A string of capitals states the bases alone. d = 2'-deoxy (DNA)
Columns and labels:
CYC1 gene = CYC1 gene repair in diploid yeast strains, growth on glycerol (YPG)
[1] = test system: mutant kanamycin gene in plasmid pK^Sm4021; assay: Gene repair of plasmid pK^Sm4021 in yeast cell-free extracts, kan^r/amp^r colony readout in E. coli DH10B
pAURNeo(−)FlAsH plasmid = assay: FlAsH fluorescence assay of neomycin phosphotransferase gene correction in yeast
[2] = YMH51 (wild-type CYC1), 5 μg oligo
[3] = YMH55 with PYNMRE11, 5 μg oligo
[4] = YMH55 with PYNRAD51, 5 μg oligo
[5] = YMH55 with PYNRAD52, 5 μg oligo
[6] = YMH55 with PYNRAD54, 5 μg oligo
[7] = YMH55 with PYNRAD55, 5 μg oligo
[8] = YMH55 with pYN132 (empty vector), 5 μg oligo
[9] = YMH55 with pYNβ (lambda beta protein expression), 5 μg oligo

B1: beta protein: protein expressed from the bet gene of the Red recombination system of bacteriophage lambda; expressed in yeast from pYNTβ (protein, UniProt P03698 1-261, looked up)
Recombination protein bet: MSTALATLAGKLAERVGMDSVDPQELITTLRQTAFKGDASDAQFIALLIVANQYGLNPWTKEIYAFPDKQNGIVPVVGVDGWSRIINENQQFDGMDFEQDNESCTCRIYRKDRNHPICVTEWMDECRREPFKTREGREITGPWQSHPKRMLRHKAMIQCARLAFGFAGIYDKDEAERIVENTAYTAERQPERDITPVNDETMQEINTLLIALDKTWDDDLLPLCSQIFRRDIRASSELTQAEAVKALGFLKQKAAEQKVAA
correction efficiency per 10^5 transformants (CYC1 gene; beta protein expression, other experiments): 0.326

B2: Cyc1/70NT: modified single-stranded vector targeting the nontranscribed strand of mutant CYC1, three phosphorothioated linkages at each terminus, SEQ ID NO: 22 (nucleic acid)
DNA: dA*dA*dC*dCdTdTdAdTdGdTdGdGdGdCdCdAdCdCdCdTdTdTdTdCdCdAdCdGdGdTdGdTdGdGdCdAdTdTdGdTdAdGdAdCdAdTdCdTdAdGdTdCdTdTdGdAdAdAdAdGdTdGdTdAdGdCdA*dC*dC*dT
No. of YPG Plate Colonies (CYC1 gene; [2]): lawn
C.E. (CYC1 gene; YMH52, 5 μg oligo): 0.47 ×10^−4
No. of YPG Plate Colonies (CYC1 gene; YMH52, 5 μg oligo): 186
C.E. (CYC1 gene; YMH53, 5 μg oligo): 0.21 ×10^−4
No. of YPG Plate Colonies (CYC1 gene; YMH53, 5 μg oligo): 73
Average C.E. (CYC1 gene; YMH53 with PYNMRE11 + PYNXRS2): 0.322 ×10^−5
Fold (CYC1 gene; YMH53 with PYNMRE11 + PYNXRS2): 57.48
No. of YPG Plate Colonies (CYC1 gene; YMH53 with PYNMRE11 + PYNXRS2): 178
Average C.E. (CYC1 gene; YMH53 with PYNRAD52 + PYNRAD54): 0.179 ×10^−5
Fold (CYC1 gene; YMH53 with PYNRAD52 + PYNRAD54): 32.01
No. of YPG Plate Colonies (CYC1 gene; YMH53 with PYNRAD52 + PYNRAD54): 109
Average C.E. (CYC1 gene; YMH53 with pYN132): 0.0056 ×10^−5
Fold (CYC1 gene; YMH53 with pYN132): 1
C.E. (CYC1 gene; YMH54, 5 μg oligo): 0.28 ×10^−4
No. of YPG Plate Colonies (CYC1 gene; YMH54, 5 μg oligo): 80
C.E. (CYC1 gene; YMH55, 5 μg oligo): 2.99 ×10^−4
No. of YPG Plate Colonies (CYC1 gene; YMH55, 5 μg oligo): 895
Average C.E. (CYC1 gene; [3]): 0.04 ×10^−5
Fold (CYC1 gene; [3]): 1.1
No. of YPG Plate Colonies (CYC1 gene; [3]): 25
Average C.E. (CYC1 gene; [4]): 0.52 ×10^−5
Fold (CYC1 gene; [4]): 14.8
No. of YPG Plate Colonies (CYC1 gene; [4]): 260
Average C.E. (CYC1 gene; [5]): 0.22 ×10^−5
Fold (CYC1 gene; [5]): 6.2
No. of YPG Plate Colonies (CYC1 gene; [5]): 108
Average C.E. (CYC1 gene; [6]): 0.09 ×10^−5
Fold (CYC1 gene; [6]): 2.4
No. of YPG Plate Colonies (CYC1 gene; [6]): 42
Average C.E. (CYC1 gene; [7]): 0.78 ×10^−5
Fold (CYC1 gene; [7]): 22.2
No. of YPG Plate Colonies (CYC1 gene; [7]): 410
Average C.E. (CYC1 gene; YMH55 with PYNXRS2, 5 μg oligo): 0.03 ×10^−5
Fold (CYC1 gene; YMH55 with PYNXRS2, 5 μg oligo): 1.34
No. of YPG Plate Colonies (CYC1 gene; YMH55 with PYNXRS2, 5 μg oligo): 22
Average C.E. (CYC1 gene; [8]): 0.04 ×10^−5
Fold (CYC1 gene; [8]): 1
No. of YPG Plate Colonies (CYC1 gene; [8]): 19
Average C.E. (CYC1 gene; [9]): 0.32 ×10^−5
Fold (CYC1 gene; [9]): 9.1
No. of YPG Plate Colonies (CYC1 gene; [9]): 166

B3: KanGG: chimeric, RNA-DNA double-hairpin oligonucleotide (SEQ ID NO: 1) correcting the mutant kanamycin gene of pK^Sm4021 (nucleic acid)
chain: GCUAUUCGGCUAGGACUGGGCACAAUUUUTTGTGCCCAGTCGTAGCCGAATAGCCTCTCCUUUUGGAGAG
modifications: chimeric RNA-DNA double hairpin, segment chemistry not given here
Relative Frequency kan^r/amp^r ([1]; 0.5 μg oligo, 1 μg plasmid, 10 μg LSY678 extract): 1.89 ×10^−5
Relative Frequency kan^r/amp^r ([1]; 1 μg oligo, 1 μg pK^Sm4021, no extract): 0.002 ×10^−5
Relative Frequency kan^r/amp^r ([1]; 1 μg oligo, 1 μg plasmid, 1 μg LSY678 extract): 0.32 ×10^−5
Relative Frequency kan^r/amp^r ([1]; 1 μg oligo, 1 μg plasmid, 10 μg LSY678 extract): 3.66 ×10^−5 and 2.78 ×10^−5
Relative Frequency kan^r/amp^r ([1]; 1 μg oligo, 1 μg plasmid, 20 μg LSY678 extract): 7.601 ×10^−5
Relative Frequency kan^r/amp^r ([1]; 1 μg oligo, no plasmid, 20 μg LSY678 extract): 0.0 ×10^−5
Relative Frequency kan^r/amp^r ([1]; 2.0 μg oligo, 1 μg plasmid, 10 μg LSY678 extract): 4.005 ×10^−5
Relative Correction Efficiency ([1]; 10 μg extract LSY386 (Δrad52)): 25.7 and 26.7 and 19.9
Relative Correction Efficiency ([1]; 10 μg extract LSY402 (Δrad51)): 5.15
Relative Correction Efficiency ([1]; 10 μg extract LSY407 (Δrad57)): 2.13
Relative Correction Efficiency ([1]; 10 μg extract LSY678 (wild type)): 1.17 and 1.08 and 1.63
Relative Correction Efficiency ([1]; 10 μg extract LSY814 (Δmsh2)): 0.79
Relative Correction Efficiency ([1]; 10 μg extract LSY837 (Δrad59)): 0.35
Relative Correction Efficiency ([1]; 10 μg extract XS827-18C (Δrad54)): 1.36
Relative Correction Efficiency ([1]; 10 μg extract YDR076W (Δrad55)): 1.27
Relative Correction Efficiency ([1]; 10 μg extract YELO37C (Δrad23)): 1.04
level of repair below wild-type levels ([1]; LSY678 extract expressing RAD52): 4 fold
Relative Correction Efficiency ([1]; extract LSY386•p52 (Δrad52 expressing RAD52)): 2.31
Relative Correction Efficiency ([1]; extract LSY678•p52 (wild type expressing RAD52)): 0.41
Relative Correction Efficiency ([1]; extracts LSY386 (2 μg) + LSY678 (8 μg)): 2.91
Relative Correction Efficiency ([1]; extracts LSY386 (2 μg) + YELO37C (8 μg)): 1.85
Relative Correction Efficiency ([1]; extracts LSY386 (4 μg) + LSY678 (6 μg)): 5.45
Relative Correction Efficiency ([1]; extracts LSY386 (4 μg) + YELO37C (6 μg)): 3.71
Relative Correction Efficiency ([1]; extracts LSY386 (6 μg) + LSY678 (4 μg)): 10.47
Relative Correction Efficiency ([1]; extracts LSY386 (6 μg) + YELO37C (4 μg)): 9.22
Relative Correction Efficiency ([1]; extracts LSY386 (8 μg) + LSY678 (2 μg)): 14.36
Relative Correction Efficiency ([1]; extracts LSY386 (8 μg) + YELO37C (2 μg)): 16.95
Relative Correction Efficiency ([1]; oligo only, no plasmid, no extract): 0.0
corrected cells by green fluorescence (confocal microscopy) (pAURNeo(−)FlAsH plasmid; LSY678 and LSY378): many corrected cells
number of cells exhibiting green fluorescence (pAURNeo(−)FlAsH plasmid; strain lacking RAD52 relative to LSY678): significant increase

B4: Cyc1/70T: modified single-stranded vector targeting the transcribed strand of mutant CYC1, three phosphorothioated linkages at each terminus, SEQ ID NO: 21 (nucleic acid)
DNA: dA*dG*dG*dTdGdCdTdAdCdAdCdTdTdTdTdCdAdAdGdAdCdTdAdGdAdTdGdTdCdTdAdCdAdAdTdGdCdCdAdCdAdCdCdGdTdGdGdAdAdAdAdGdGdGdTdGdGdCdCdCdAdCdAdTdAdAdG*dG*dT*dT
No. of YPG Plate Colonies (CYC1 gene; [2]): lawn
C.E. (CYC1 gene; YMH52, 5 μg oligo): 0.17 ×10^−4
No. of YPG Plate Colonies (CYC1 gene; YMH52, 5 μg oligo): 57
C.E. (CYC1 gene; YMH53, 5 μg oligo): 0.74 ×10^−4
No. of YPG Plate Colonies (CYC1 gene; YMH53, 5 μg oligo): 281
Average C.E. (CYC1 gene; YMH53 with PYNMRE11 + PYNXRS2): .263 ×10^−5
Fold (CYC1 gene; YMH53 with PYNMRE11 + PYNXRS2): 8.29
No. of YPG Plate Colonies (CYC1 gene; YMH53 with PYNMRE11 + PYNXRS2): 155
Average C.E. (CYC1 gene; YMH53 with PYNRAD52 + PYNRAD54): .185 ×10^−5
Fold (CYC1 gene; YMH53 with PYNRAD52 + PYNRAD54): 5.82
No. of YPG Plate Colonies (CYC1 gene; YMH53 with PYNRAD52 + PYNRAD54): 103
Average C.E. (CYC1 gene; YMH53 with pYN132): 0.03169 ×10^−5
Fold (CYC1 gene; YMH53 with pYN132): 1
C.E. (CYC1 gene; YMH54, 5 μg oligo): 0.14 ×10^−4
No. of YPG Plate Colonies (CYC1 gene; YMH54, 5 μg oligo): 43
C.E. (CYC1 gene; YMH55, 5 μg oligo): 0.38 ×10^−4
No. of YPG Plate Colonies (CYC1 gene; YMH55, 5 μg oligo): 116

Source: US7566535B2, “Enhanced oligonucleotide-mediated nucleic acid sequence alteration” (University of Delaware, priority 2002, dated 2009)
